Data set [1] has as its target T1, PhuS (Pseudomonas aeruginosa PAO1, UniProt O68880 1-354). Nature of the data set: fluorescence anisotropy; apo-PhuS; much smaller anisotropy change; FA: 20 mM Tris-HCl pH 8.0, 100 mM NaCl, 0.05 mg/ml BSA, 10 nM DNA (Fur: 10 mM bis-Tris borate pH 7.5, 40 mM KCl, 0.1 mM MnSO4, 0.1 mg/ml BSA, 10% glycerol), temperature not stated; EMSA: 100 mM Tris pH 8.0, 500 mM NaCl, 10% glycerol, 10 ng/ml salmon sperm DNA, 37 C, 30 pM DNA. The note with it: protein: recombinant; tags: none; label: 5'-6FAM; blunt.

In the next data set the target is T2, Fur (Pseudomonas aeruginosa, UniProt Q03456 1-134).
T2 sequence: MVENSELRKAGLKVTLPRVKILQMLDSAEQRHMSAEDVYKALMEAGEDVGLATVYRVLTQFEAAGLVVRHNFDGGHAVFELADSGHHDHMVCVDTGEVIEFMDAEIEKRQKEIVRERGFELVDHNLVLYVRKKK
The experiment in a line: fluorescence anisotropy; 0.1 mM MnSO4; bis-Tris borate pH 7.5, 40 mM KCl; FA: 20 mM Tris-HCl pH 8.0, 100 mM NaCl, 0.05 mg/ml BSA, 10 nM DNA (Fur: 10 mM bis-Tris borate pH 7.5, 40 mM KCl, 0.1 mM MnSO4, 0.1 mg/ml BSA, 10% glycerol), temperature not stated; EMSA: 100 mM Tris pH 8.0, 500 mM NaCl, 10% glycerol, 10 ng/ml salmon sperm DNA, 37 C, 30 pM DNA. The note with it: protein: recombinant; tags: GST removed with thrombin (pGEX-2T); chain copies: 2; label: 5'-6FAM; blunt. For orientation: Fluorescence polarisation rises when a labelled molecule tumbles more slowly, as on binding a larger partner.

In data set [2] the target is T1, PhuS. Nature of the data set: fluorescence anisotropy; apo-PhuS; FA: 20 mM Tris-HCl pH 8.0, 100 mM NaCl, 0.05 mg/ml BSA, 10 nM DNA (Fur: 10 mM bis-Tris borate pH 7.5, 40 mM KCl, 0.1 mM MnSO4, 0.1 mg/ml BSA, 10% glycerol), temperature not stated; EMSA: 100 mM Tris pH 8.0, 500 mM NaCl, 10% glycerol, 10 ng/ml salmon sperm DNA, 37 C, 30 pM DNA. The note with it: protein: recombinant; tags: none; label: 5'-6FAM; blunt.

The next data set addresses PhuS H212R (Pseudomonas aeruginosa PAO1, UniProt O68880 1-354, H212R). Nature of the data set: fluorescence anisotropy; apo-PhuS H212R; FA: 20 mM Tris-HCl pH 8.0, 100 mM NaCl, 0.05 mg/ml BSA, 10 nM DNA (Fur: 10 mM bis-Tris borate pH 7.5, 40 mM KCl, 0.1 mM MnSO4, 0.1 mg/ml BSA, 10% glycerol), temperature not stated; EMSA: 100 mM Tris pH 8.0, 500 mM NaCl, 10% glycerol, 10 ng/ml salmon sperm DNA, 37 C, 30 pM DNA. The note with it: protein: recombinant; tags: none; label: 5'-6FAM; blunt.

Bounds are passed on as bounds.

One may read the Kd as a measure of binding affinity in units of concentration.

B1: prrF1-30 (dsDNA)
DNA 1: GACATGGAAATGAGAATCATTATTATGTCA
DNA 2: TGACATAATAATGATTCTCATTTCCATGTC
For B1, the Kd with PhuS [1] was more than 2000 nM; with Fur it was 50 ± 10 nM.

B2: prrF1-50 (FAM) (dsDNA)
DNA 1: AGCAGAAAAGTTTGGCGAAAGCGTTTGACATGGAAATGAGAATCATTATT
DNA 2: AATAATGATTCTCATTTCCATGTCAAACGCTTTCGCCAAACTTTTCTGCT
For the molecule B2, the Kd came out at 64 ± 10 nM with PhuS [2] and 90 ± 30 nM with PhuS H212R.

B3: prrF2-50 (Fur) (dsDNA)
DNA 1: ATGAGAACCGGCTTGACCTGATAATGAGAATAGTTATTATTACACCAACT
DNA 2: AGTTGGTGTAATAATAACTATTCTCATTATCAGGTCAAGCCGGTTCTCAT
Regarding B3, the binding result with PhuS [2] is “no binding”.

B4: prrF1-50 (No Fur) (dsDNA)
DNA 1: ATTCCAGAGGGCTCGCGACTAGCTAGCAGAAAAGTTTGGCGAAAGCGTTT
DNA 2: AAACGCTTTCGCCAAACTTTTCTGCTAGCTAGTCGCGAGCCCTCTGGAAT
For B4, the binding result with PhuS [2] was “no binding”.
